Test results reported in publication PMC2151181 (The Journal of Cell Biology, 1999).

Target: SNARE core complex (synaptobrevin-II 1–96, syntaxin-1A 180–262, SNAP-25A 1–83, SNAP-25A 130–206) (rat, UniProt P63045;P32851;P60881-2)
Test: native gel or EMSA

B1: synaptotagmin III C2A-C2B, residues 295–569 (domain or fragment)
chain: APCGRISFALRYLYGSDHLVVRILQALDLPAKDSNGFSDPYVKIYLLPDRKKKFQTKVHRKTLNPIFNETFQFSVPLAELAQRKLHFSVYDFDRFSRHDLIGQVVLDNLLELAEQPPDRPLWRDILEGGSEKADLGELNFSLCYLPTAGRLTVTIIKASNLKAMDLTGFSDPYVKASLISEGRRLKKRKTSIKKNTLNPTYNEALVFDVAPESVENVGLSIAVVDYDCIGHNEVIGVCRVGPEAADPHGREHWAEMLANPRKPVEHWHQLVEEKT
B1: binds.
